Measurements published in the supplement of paper PMC12455559.
± gives the standard deviation of the averaged measurements.

Legend:
[1] = purified protein yield per well (BCA); higher = higher soluble expression
Outline: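 Candidate enzymes were produced in E. coli C41(DE3) grown in 2 mL autoinduction cultures containing 100 µg/mL kanamycin, first at 37 °C for 2 h and then at 18 °C for 40 h. After cell lysis, protein was captured on Ni-charged magnetic beads and freed by SUMO protease cleavage on an OT-2 robot. Purified protein yield per well was read with the Pierce Rapid Gold BCA kit. Values under 25 ug (0.1 mg/mL) fall below the detection threshold.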

[2] = melting temperature (DSF); higher = more thermostable
Outline: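 On a Bio-Rad CFX96, fluorescence of 45 μL enzyme (0 to 0.3 mg/mL) mixed with 5 μL 5X Sypro Orange in sealed PCR plates was followed from 25 °C through 250 cycles of 0.3 °C, with a 0.3 °C/s ramp. The enzymes had been expressed in E. coli C41(DE3), taken up on nickel beads and released by SUMO protease. Melting temperature, measured by differential scanning fluorimetry, is the value given.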

[3] = PET hydrolysis, aromatic products released after 48 h (umol product/mg enzyme); higher = more PET depolymerization activity
Outline: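 The measure of PET hydrolysis activity is aromatic product released into the supernatant, given per mg enzyme. Nickel-purified, SUMO-cleaved enzyme without tag was added at 5 μg (50 μL) to 3.5 mg amorphous PET film or crystalline PET powder in 450 μL of citrate, phosphate or glycine buffer spanning pH 4.5 to 8.5. After 48 h at 40 or 60 °C in sealed plates without shaking, absorbance at 260 and 280 nm was taken against buffer blanks.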

[4] = substrate: aFilm, 40 °C, pH 4.5
[5] = substrate: aFilm, 40 °C, pH 5.5
[6] = substrate: aFilm, 40 °C, pH 6.5
[7] = substrate: aFilm, 40 °C, pH 7.5
[8] = substrate: aFilm, 60 °C, pH 4.5
[9] = substrate: aFilm, 60 °C, pH 5.5
[10] = substrate: aFilm, 60 °C, pH 6.5
[11] = substrate: aFilm, 60 °C, pH 7.5
[12] = substrate: cryPow, 40 °C, pH 4.5
[13] = substrate: cryPow, 40 °C, pH 5.5
[14] = substrate: cryPow, 40 °C, pH 6.5
[15] = substrate: cryPow, 40 °C, pH 7.5
[16] = substrate: cryPow, 60 °C, pH 4.5
[17] = substrate: cryPow, 60 °C, pH 5.5
[18] = substrate: cryPow, 60 °C, pH 6.5
[19] = substrate: cryPow, 60 °C, pH 7.5
[20] = substrate: cryPow, 40 °C, pH 8.5

| Sequence | purified protein yield per well [1] | melting temperature [2] | PET hydrolysis [3, 4] | PET hydrolysis [3, 5] | PET hydrolysis [3, 6] | PET hydrolysis [3, 7] | PET hydrolysis [3, 8] | PET hydrolysis [3, 9] | PET hydrolysis [3, 10] | PET hydrolysis [3, 11] | PET hydrolysis [3, 12] | PET hydrolysis [3, 13] | PET hydrolysis [3, 14] | PET hydrolysis [3, 15] | PET hydrolysis [3, 16] | PET hydrolysis [3, 17] | PET hydrolysis [3, 18] | PET hydrolysis [3, 19] | PET hydrolysis [3, 20] | PET hydrolysis ([3]; substrate: cryPow, 60 °C, pH 8.5) |
| --- | --- | --- | --- | --- | --- | --- | --- | --- | --- | --- | --- | --- | --- | --- | --- | --- | --- | --- | --- | --- |
| ADNPYQRGPNPTLASVAATRGTFATAQINVPGGNGFGSGVIYYPTDTSQGTFGGVAIVPGYSALFANEEAWMGPWLASFGFVVIGIETNSRTDSADARGTQLLAALDYLTQRSSVRDRVDPSRLSVVGHSAGGAGVLSAVIRRPSLKAAVGLAPGSPVGNYELSADKVPLMFISGQKDTTVTQSYLNGLYTTIPASTPSAWVEITGVDHLFATRANTTEMRVLIPWLKIFLDNDTRYTQFLCPLADSSGISMYRNKCPYVPPGGSSPSPSATPSPSVSPSASPSASPSASPSVSPSASPSVSPSASPSASPSSQPSGACTASYKTVNSWPGGYQGEVTVTAGSAAINGWTVRWTLGSGQSVSQVWNGTLTTSGSTVTVKNVSYNGSLPAAGSATFGFLANGTASTPAVTCTSP [ESM004] | 375 µg | 55.9 C | < 3 | < 3 | < 3 | < 3 | < 3 | < 3 | < 3 | < 3 | < 3 | < 3 | < 3 | < 3 | < 3 | < 3 | < 3 | < 3 |  |  |
| MPPPPPPPPPVQTVTVEPGYGFGGGTIYYPQESTGRLPVVAAVPGFTETQEAVAWYGPLLARRGNIVITIDTISPTNAPKTRADQALAAIDYVVTQSAVSDIADASRTAVMGHSMGGGASLFAALKRPTLKAIVPLAPWARTTDFSGVAVPTLIVGCENDGIAAVGTYAEPFYESIPATTPKAYLEMAGGNHYCTNSEDPVIAGYVSAWTDRFLKGDTTASSRLCPPSPVGPISEYRSNCPY [TEP189] | 153 µg | 67 C |  |  |  |  |  |  |  |  | < 3 | 8 | 56 | 62 | < 3 | < 3 | 23 | 22 |  |  |
| APNAAIAAAPRVAPAANPYERGPAPTEESVKAEKGPFDIAQMPVPGGAGVFGGGTIWYPKDEAGPFGAVVVSPGFMTLEPLIQWYGRTLASHGFVVMTMATITPIDPPFSRGDELRSALDYLVTKSTVKDKIDPTRTALMGHSMGGGGTLDAASKLPDLKAAIPLAPWNLDYAPPAKIKAPTLIIGADNDPIAPTAAFADPFYAALTTQNRAYLKLKNAGHTFSFLGYNPTITKYTVSWLKRFVDNDTRYDQFLCPIPAASDTVAAYQGTCPLT [DP091] | 32 µg | 53.8 C |  |  |  |  |  |  |  |  |  | < 3 | < 3 | < 3 |  |  |  |  | < 3 |  |
| VQIGPNPTKSSLEASRGPFSTSQFTVSRPSGYGAGTVYYPTNAGAKVGAIAIVPGFLSYQSSINWWGPRLASHGFVVITIDTYTTGDQPDSRSRQQLAALDQVIALGNTSSSPIYGKVDGSRTGVMGWSMGGGGSLISAKNRPSIKAAAPQAPWNTSTNFSSVTVPTLIFACQSDIVAPVISHAIPFYNSMTRNPKQYLEKTLGDHFCFNNANATVGLKGVAWMKRFVDGDTRYTSFACSNPNAFGFSDFRTARCS [ESM045] | 30.4 µg | 63.4 C |  |  |  |  |  |  |  |  | 5 | 12 | 22 | 35 |  |  |  |  |  |  |
| AANPYQRGPAPTAASVAAVTGPFATASVSVPRGNGFGGGVIYYPTDTSQGTFGGLAISPGLNGTWPGIAWLGSRLASQGFIVFGIETNNLNDSPTSRGTQLLAALDYLAQRSSVRSRLDPGRLAVAGHSMGGGGALDAALRRPSLKAAIGNAPYLPSNTLAGNRVPTLIYAMQNDTLVPPSRLTSLYNTIPATTERAYLEITGAGHNYIGQPSTTLARTMIPWLKIFIDNDTRFSQFLCPLADQSGIRQYRSSCPLVPATTRALTAAAG [DP043] | 92 µg | 67.3 C |  |  |  |  |  |  |  |  |  | 12 | 39 | 96 |  | 7 | 62 | 98 | 115 | 107 |
| DQIGQAPTASNITGNGSFATTSASISSTVSGFGGGRVYYPTAAGTYPVIAISPGFTATWSSLAWIGPRLSSWGFVVVGIETNSIYDQPASRGNQLLAALNWAVNSSPTAVRSHVDGSRRGVAGHSMGGGGTLEALAADTTGLVKAGVPLAPWNTDKTWNNVSEPVLIVGGQADTVAPVASHSIPFYNTLAGPKTYVELTGQSHFFPQTTNATASRALVAWFKRWVSQDSRFTPFTCGFSGVAVSDFRSNAC [ESM082] | 151 µg | 67.6 C |  |  |  |  |  |  |  |  | 9 | 22 | 29 | 36 | < 3 | 23 | 46 | 65 |  |  |
| QSSSCSLMGDVNESNGVDIVDALLIAQAYVGLNPEMEYNPCADVDCSGSMNIVDALLVAQKYVGLISNFPCQISPEPTTEPTSEPVLFIACGSSSAVGSFQADEYFSGGNTHSNSNSVDISRITVNTPPAGLFNNERYGEMSYNIPGLSAGETYTVTLYFAETYLSSSGSRLFNVSINHSDVLTSFDIYDSAGGQNIAVSYSFITTADNSGNILIDFASVTENPKINGIAIMAGIGPTNVPTPEPTPTPENSGFQRGPDPSLASISANRGTFATAELTFPAGNGFGGGFIYYPTDTSLGTWGAVAICPGGSAKFANEETWMGHWLASFGFVVIGIETNNTFDFPESRGTQLLAALDYLVQKSAVKDRVDPDRLMVMGHSMGGGGAFHAALARSSLKTMVALAPWFNTNLTSPSLSNLRMPTMVISARNDTVVTPASCSAIYDKIPTSTQRAWVELAADDHLGFIKPNYTEMRVLIPWMKIFLDSDERYVQFLCPMANSSNISIYKNSCPLVP [TEP098] | 50.5 µg | 51.7 C |  |  |  |  |  |  |  |  | < 3 | < 3 | < 3 | < 3 |  |  |  |  |  |  |
| AENPHQRGPNPTVAALEAAAGPFAVAKVSVPGGHGFGGGTITYPTDTSQGTFGAVAVSPGFIESEGAIAWFGPRLASHGFVVITISTNGLFDQPDARGAQLLAALDYVTKSSAVRDRVDPARLAVMGHSMGGGGALYATAQRPALKASIPLLAWSNTKSWGSVRVPTMVIGAENDFIASVGSHSEPFYQSLGGEKAYLEMNDADHFVTNSPTPTVGKLTVSWLKRFMDNDTRYDQFLCPAPPVGGPISEYRDTCPYI [DP017] | 30 µg | 49.6 C |  |  |  |  |  |  |  |  |  | 4 | 11 | 13 |  |  |  |  | 6 |  |
| ADNPYQRGPDPTLASVAASRGTFATAQVNVPGGNGFASGVIYYPTDTTQGTFGAVAIVPGYSALFANEEAWMGPWLASFGFVVIGIETNSRTDSADARGTQLLAALDYLTQRSPVRDRVDPNRLSVVGHSAGGAGVLSAVVRRPSLKAAIGLAPGSPVGNYDLSTAKVPTMFISGQRDTTVTQSYLNGLYSTIPAALPSAWVEIAGVDHLFATRANNTEMRVLIPWLKIWLDNDTRYPQFLCPLMDSTNISMYRNKCPYVPPGGGPSPSPSATPSPSVTPSPSPSPSPSPSPSPSPTPTPGACTATYRTVNSWGGGYQGEVTVKAGASAVNGWTVRWTLNAGQTVSQVWNGTLSTSGSSVTVKNASYNGSLPPAGTTVFGFLANGTPATPALTCASP [ESM009] | 358 µg | 58.6 C |  |  |  |  |  |  |  |  | < 3 | < 3 | < 3 | < 3 | < 3 | < 3 | < 3 | < 3 |  |  |
| ADNPYQRGPNPTLASVAANRGTFATAQTSVPAGNGFGGGVIYYPTDTSQTFGGVAIVPGYSALFANEEAWMGPWLASFGFVVIGIETNSRTDSADARGTQLLAALDYLTQRSSVRDRVDPNRLSVVGHSAGGAGVLSAILRRPTLKAGIGLAPGSPVGDYGLSNDRVPTMFISGQRDTTVTQSYLNGLYTTIPASTPSAWVEITGVDHLFATRANTTEMRVLIPWLKIWVDNDTRYTQFLCPLADSSNISMYRNKCPYVPPGGSPSPSASPSSSPSQSPSQSPSQSPSQSPSQSPSTSPSPPPPGACVAEYQPQNSWPGGYQALVTVKAGSSAINGWTVRWTLGSGQTISQAWNGTLSTSGSAVTVKNASYNGSLPAGGSTSFGFLATGTPSTPTLTCTSP [ESM013] | 431 µg | 59.8 C | < 3 | < 3 | < 3 | < 3 | < 3 | < 3 | < 3 | < 3 | < 3 | < 3 | < 3 | < 3 | < 3 | < 3 | < 3 | < 3 |  |  |
| QPTLESLGNPGPYQVAYYDQLPEVDEYGAATLYFPANRGTDFGGVAIAPGFIEQQENIEWWGRHLASYGFAVLVLDTNNPRDDPQVRSEALLAALDVIRGEGARSGSPIRGKILNDRMAVMGHSMGGGGTLLAANRASDQLKAIIPFTPWLPNADFSSVAVPTLVLAGEVDRIASVAEHAWPHFQTLPEGIPRMYVEIAGGNHFIANSTTDQERLNPNIDVHDLVGALGVAWLKYFVDGDEDYRDLIYGELPAEQRARLSRFEFVQ [TEP107] | 57.2 µg | 44.5 C |  |  |  |  |  |  |  |  | < 3 | < 3 | < 3 | < 3 | < 3 | < 3 | < 3 | < 3 |  |  |
| ADNPYQRGPDPTPASVSANRGTFATAQISVPAGNGFGGGVIYHPTDTSQGTFGAIAVVPGYTATWAAEGAWMGHWLASFGFVVIGIDTNSRNDWDTARGTQLLAALDYLTQRSPVRDRVDANRTAVMGHSMGGGGAMHAALQRPSLKAAIGLAPFSPSQNLTTTRVPTMLLAGQSDTTTTPASILNLYNGIPAATEKAYLELTGAGHGFPTSNNPTMMRNVIPWLKIFVDSDTRYTQFLCSLSNWDGIRAYQSTCPLVPSPVPTTTSTTSTTTTISTTTTTPAPGDACSATYRTTNSWPGGYQAEVTVTAGNTAVNGWNVQWTLGSGQTVTQVWNGTLNVSGSTASVRNASYNGSLQANTSTTFGFIGGGTPPTSSLSCTSP [ESM035] | 510 µg | 57.4 C | < 3 | < 3 | < 3 | < 3 | < 3 | < 3 | < 3 | < 3 | < 3 | < 3 | 7 ± 2.8 | 23.5 ± 0.71 | < 3 | < 3 | < 3 | < 3 |  |  |
